Target: Vairimorpha necatrix 20S proteasome core particle (Vairimorpha necatrix (endogenous in spores))
Test: cryo-EM structure

percent of proteasome particles capped by RP: 12%
Substance: Vairimorpha necatrix 19S regulatory particle (complex)

Source: paper doi:10.1101/2022.07.11.499521
